Measured values taken from publication PMC8191807, “The fidelity of DNA replication, particularly on GC-rich templates, is reduced by defects of the Fe–S cluster in DNA polymerase δ” (Nucleic Acids Research, 2021).

T1: Pol3p, catalytic subunit of DNA polymerase δ (overexpressed for Pol δ purification) (S. cerevisiae, UniProt P15436 1-1097)
T1 construct: Pol3p, catalytic subunit of DNA polymerase δ, Saccharomyces cerevisiae; also called catalytic subunit of Pol δ; source: purified on glutathione Sepharose 4B, PreScission Protease, MonoS FPLC
T1 sequence (looked up): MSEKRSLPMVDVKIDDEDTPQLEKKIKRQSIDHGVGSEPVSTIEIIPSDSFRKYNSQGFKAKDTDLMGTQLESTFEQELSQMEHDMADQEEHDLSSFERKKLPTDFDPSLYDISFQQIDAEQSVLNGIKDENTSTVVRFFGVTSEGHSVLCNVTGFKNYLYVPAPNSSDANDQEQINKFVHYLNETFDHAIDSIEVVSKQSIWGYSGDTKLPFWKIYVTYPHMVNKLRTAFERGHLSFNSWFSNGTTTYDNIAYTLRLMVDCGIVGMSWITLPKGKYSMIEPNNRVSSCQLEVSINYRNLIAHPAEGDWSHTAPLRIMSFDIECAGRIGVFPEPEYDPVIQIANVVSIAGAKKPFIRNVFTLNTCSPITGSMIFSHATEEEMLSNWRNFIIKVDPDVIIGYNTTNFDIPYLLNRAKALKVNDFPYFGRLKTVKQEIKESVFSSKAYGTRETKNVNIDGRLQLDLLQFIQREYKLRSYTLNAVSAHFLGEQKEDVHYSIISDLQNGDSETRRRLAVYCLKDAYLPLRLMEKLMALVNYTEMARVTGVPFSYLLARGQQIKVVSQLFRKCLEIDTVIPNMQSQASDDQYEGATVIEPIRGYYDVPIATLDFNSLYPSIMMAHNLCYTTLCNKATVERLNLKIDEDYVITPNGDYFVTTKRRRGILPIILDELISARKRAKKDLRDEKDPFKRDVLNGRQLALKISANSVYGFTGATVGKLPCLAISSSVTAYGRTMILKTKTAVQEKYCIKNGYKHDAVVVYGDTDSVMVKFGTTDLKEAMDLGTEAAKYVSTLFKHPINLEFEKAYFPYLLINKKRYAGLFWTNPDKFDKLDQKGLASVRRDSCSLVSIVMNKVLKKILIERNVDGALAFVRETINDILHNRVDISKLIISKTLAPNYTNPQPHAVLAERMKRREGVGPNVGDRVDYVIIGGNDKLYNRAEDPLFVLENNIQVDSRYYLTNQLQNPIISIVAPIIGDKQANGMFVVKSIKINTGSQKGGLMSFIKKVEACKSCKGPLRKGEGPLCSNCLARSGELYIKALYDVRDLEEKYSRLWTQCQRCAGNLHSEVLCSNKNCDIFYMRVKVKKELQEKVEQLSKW

T2: Pol3 fused to a LexA DNA-binding domain (LexABD-POL3, pBL322) (S. cerevisiae, UniProt P15436 1-1097)
T2 construct: Pol3p, catalytic subunit of DNA polymerase δ, Saccharomyces cerevisiae; also called Pol3^BD; source: yeast two-hybrid fusion (2μ vector pBTM116, strain L40 or its met18Δ derivative DKy440)
T2 sequence (looked up): T1 sequence (looked up)

B1: Pol32p, accessory subunit of DNA polymerase δ (overexpressed for Pol δ purification) (natural protein, S. cerevisiae, UniProt P47110 1-350, looked up)
chain: MDQKASYFINEKLFTEVKPVLFTDLIHHLKIGPSMAKKLMFDYYKQTTNAKYNCVVICCYKDQTIKIIHDLSNIPQQDSIIDCFIYAFNPMDSFIPYYDIIDQKDCLTIKNSYELKVSESSKIIERTKTLEEKSKPLVRPTARSKTTPEETTGRKSKSKDMGLRSTALLAKMKKDRDDKETSRQNELRKRKEENLQKINKQNPEREAQMKELNNLFVEDDLDTEEVNGGSKPNSPKETDSNDKDKNNDDLEDLLETTAEDSLMDVPKIQQTKPSETEHSKEPKSEEEPSSFIDEDGYIVTKRPATSTPPRKPSPVVKRALSSSKKQETPSSNKRLKKQGTLESFFKRKAK
notes: Pol32p, accessory subunit of DNA polymerase δ, Saccharomyces cerevisiae
B2: Pol31p, accessory subunit of DNA polymerase δ (overexpressed for Pol δ purification) (natural protein, S. cerevisiae, UniProt P46957 1-487, looked up)
chain: MDALLTKFNEDRSLQDENLSQPRTRVRIVDDNLYNKSNPFQLCYKKRDYGSQYYHIYQYRLKTFRERVLKECDKRWDAGFTLNGQLVLKKDKVLDIQGNQPCWCVGSIYCEMKYKPNVLDEVINDTYGAPDLTKSYTDKEGGSDEIMLEDESGRVLLVGDFIRSTPFITGVVVGILGMEAEAGTFQVLDICYPTPLPQNPFPAPIATCPTRGKIALVSGLNLNNTSPDRLLRLEILREFLMGRINNKIDDISLIGRLLICGNSVDFDIKSVNKDELMISLTEFSKFLHNILPSISVDIMPGTNDPSDKSLPQQPFHKSLFDKSLESYFNGSNKEILNLVTNPYEFSYNGVDVLAVSGKNINDICKYVIPSNDNGESENKVEEGESNDFKDDIEHRLDLMECTMKWQNIAPTAPDTLWCYPYTDKDPFVLDKWPHVYIVANQPYFGTRVVEIGGKNIKIISVPEFSSTGMIILLDLETLEAETVKIDI
notes: Pol31p, accessory subunit of DNA polymerase δ, Saccharomyces cerevisiae
B3: Pol31 fused to a GAL4-activation domain (GAL4AD-POL31, pBL364) (natural protein, S. cerevisiae, UniProt P46957 1-487, looked up)
chain: B2 chain
notes: Pol31p, accessory subunit of DNA polymerase δ, Saccharomyces cerevisiae; also called Pol31^AD; source: yeast two-hybrid fusion (2μ vector pACT2, strain L40 or its met18Δ derivative DKy440)

Assays:
[1] = molecular target: T1, Pol3p, catalytic subunit of DNA …; test: co-purification (glutathione Sepharose, MonoS FPLC), composition by gel electrophoresis; Pol3p, Pol31p and Pol32p overexpressed together in the MET18 strain BJ2168; batch bound to glutathione Sepharose 4B at 4°C, washed with Hep250, Hep150, Hep50, eluted with 20 mM glutathione, PreScission Protease, MonoS gradient 50-1000 mM NaCl; details: partners not purified
[2] = molecular target: T2, Pol3 fused to a LexA DNA-binding domain …; test: two-hybrid; LexA DNA-binding domain and GAL4 activation domain fusions, (lexAop)8-lacZ reporter, quantitative β-galactosidase assays in triplicate; wild-type strain L40 and its met18Δ derivative DKy440; details: partners not purified

| Binder | stoichiometry N [1] | fold reduction of β-galactosidase in the met18 strain relative to the wild-type strain [2] [fold] |
| --- | --- | --- |
| B1 | 1.1 molar ratio relative to Pol3p |  |
| B2 | 0.8 molar ratio relative to Pol3p |  |
| B3 |  | ~2 |
